Measurements from patent US20250243282A1 (TRUEBINDING, published 2025).
Positions count from the first letter of the chain named. Names and notes keep the numbering of the source.

B1: 847.20H7 (antibody, V domains shown)
VH: QVQLQQSGAELVRPGASVNLSCKASGYTFTNYWMNWVKQRPGQGLEWVGMIDPSDSETHYNQMFKDKATLTIDKSSSIAYMQLSSLTSEDSAVYYCARWGAMDYWGQGTSVTVSS
VL: DIVMTQSHKIMSTSVGDRVSITCKASQDVSTTVAWFQQKPGQSPKLLLYWASTRHTGVPDRFTGSGSGTDYTLTISSVQAEDLALYYCQQHYSPPFTFGSGTKLEIK
B2: F846C.1F5 (antibody, human IgG4 S228P, kappa, V domains shown)
VH: QIQLVQSGPELKKPGETVKISCKASGYTFTNYGMNWVKQAPGKGLKWMGWINTYTGEPSYADDFKGRFAFSLETSASTAYLQINNLKNEDMATYFCARWGGYDGDYYAMDYWGQGTSVTVSS
VL: NIMMTQSPSSLAVSAGEKVTMSCKSSQSVLYSSNQKNYLAWYQQKPGQSPKLLIYWASTRESGVPDRFTGSGSGTDFTLTISSVQPEDLAVYYCHQYLSSLTFGAGTKLELKR
B3: F846C.2H3 (antibody, human IgG4 S228P, kappa, V domains shown)
VH: B2 VH
VL: B2 VL
B4: F846C.1B2 (antibody, human IgG4 S228P, kappa, V domains shown)
VH: B2 VH with D103A, Y111F
VL: B2 VL with M3W, M4L, K18M, S22T, T78S, P86A
B5: F846C.1H12 (antibody, human IgG4 S228P, kappa, V domains shown)
VH: B2 VH with Y32F, M91I, D103A
VL: B2 VL with E17Q, N34S, T69S
B6: F846TC.16B5 (antibody, human IgG4 S228P, kappa, V domains shown)
VH: B2 VH with S59A
VL: B2 VL with P86A
B7: 13G4.2F8 (antibody, human IgG4 S228P, kappa, V domains shown)
VH: QVQLQQPGAELVKPGASVKLSCKASGYTFTSYWMHWVKQRPGQGLEWIGMIHPNSGSTDYNEKFKNKATLNVDKSSSTAYIQLSSLTSEDSAVYYCTRWGIYYYARDYWGQGTTLTVSS
VL: DIVMTQSQKFMSTSVGERVSITCKASQNVGTNVAWYQQKAGQSLELLIYGASNRHTGVPDRFTGSGSGTDFTLTITNVQSEDMTNYFCEQYSNFPLTFGAGTKLELKR
B8: 847.15H11 (antibody, V domains shown)
VH: EVQLQQSGAEVVKPGAPVKLSCKASGYTFNNYWLNWVKQRPGRGLEWIGRIDPSDSETHYNQKFKDKATLTVDMSSSTAYIQLSSLTSEDSAVYYCARGDYYYGTRGPMDYWGQGTSVTVSS
VL: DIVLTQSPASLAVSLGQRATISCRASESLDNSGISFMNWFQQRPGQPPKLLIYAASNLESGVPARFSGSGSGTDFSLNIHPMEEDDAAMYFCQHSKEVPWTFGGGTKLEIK
B9: 847.11D6 (antibody, V domains shown)
VH: EVKLQQSGPELMKPGTSMKISCKASGYSFTGYTMNWVKQSHGKNLEWIGLINPYNGGTNYNQKFRGKATLSVDKSSNTAYMELLSLTSEDSAVYYCARKDDYYGSSPYALDYWGQGTSVTVSS
VL: DIVMTQSPASLAVSLGQRATISCRASESVENHVNSFMHWFQQKPGQPPKLLIYRASNLQSGIPARFSGSGSRTDFTLTINPVEADDVATYYCQQNNEVPYTFGGGTKLEIK
B10: 847.12C4 (antibody, V domains shown)
VH: QVQLKESGPDLVQPSQTLSLTCTVSGFSLTIYGVHWVRQPPGKGLEWVGTVAWDDKKYYNSPLQSRLSISRDTSKNQVFLKLSSLQTEDTAMYYCTMTGGPINYWGPGTSVTVSS
VL: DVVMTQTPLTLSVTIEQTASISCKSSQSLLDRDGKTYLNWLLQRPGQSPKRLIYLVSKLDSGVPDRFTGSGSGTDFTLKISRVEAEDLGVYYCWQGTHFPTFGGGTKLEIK
B11: 847.10C9 (antibody, V domains shown)
VH: EVQLQQSGAELVRPGTSVKVSCKASEYAFNNYMMEWVKQRPGQGLEWIGVINPGSGATNYNENFKDKATLTADKSSTTAYMQLSSLTSDDSAVYFCTYNDLGYWGQGTLVTVSA
VL: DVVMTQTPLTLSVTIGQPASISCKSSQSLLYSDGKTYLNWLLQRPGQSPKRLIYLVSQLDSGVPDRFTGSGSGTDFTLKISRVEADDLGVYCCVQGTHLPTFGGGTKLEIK
B12: 849.4B2 (antibody, V domains shown)
VH: DGKLQESGPGLVKPSQSLSLTCSVTGYSITSGYYWNWIRQFPGNKLEWMGHISYDGRNNYNPSLKNRISITRDTSKNQFFLKLNSVTTEDTATYYCAGYDFLWYFDVWGTGTTVTVSS
VL: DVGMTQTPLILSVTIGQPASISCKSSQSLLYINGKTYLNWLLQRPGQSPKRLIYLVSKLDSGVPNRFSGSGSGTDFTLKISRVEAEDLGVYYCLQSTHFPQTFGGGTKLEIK
B13: 847.15D12 (antibody, V domains shown)
VH: QVQLQQSGAELMKPGASVKISCKATGYTFTNYWIEWVKQRPGHGLEWIGEFLPGDGSSHYNEKFKGKATFTSDTSSNTAYIHLTSLTSEDSAVYYCVRDDYDSDYWAQGTTLTVSS
VL: QAVVTQESALTTSPGETVTLTCRSSTGAVTTSNYANWVQEKPDHLFTGLIGGTNNRAPGVPARFSGSLIGDKAALTITGAQTEDEAIYFCALWYSNHLVFGGGTKLTVL
B14: 847.27B9 (antibody, V domains shown)
VH: QIQLVQSGPELKKPGETVKISCKASGYTFTNYGMNWVKQAPGKGLKWMGWINTNTGEPTYAEEFKGRFAFSLETSASTAYLQINYLKNEDTATFFCARLDYDYDEDYWGQGTTLTVSS
VL: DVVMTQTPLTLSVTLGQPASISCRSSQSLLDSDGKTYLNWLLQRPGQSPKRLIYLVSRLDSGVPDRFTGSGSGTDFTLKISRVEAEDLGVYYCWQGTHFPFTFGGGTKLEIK
B15: 847.4D3 (antibody, V domains shown)
VH: EVQLVESGGGLVKPGGSLKLSCAASGFTFSSYAMSWVRQTPEKRLEWVASISSGDSPYYPDSVKGRFTISRDNARNILYLQMSSLRSEDTAMYYCTRFTTVVEMDYWGQGTSVTVSS
VL: DVVMTQTPKFLPITAEDRVTITCKASQSVSNEVAWYQQKPGQSPKLLIYYASNRYTGVPDRFTGSGSGTDFTFTIRSVQLEDLAVYFCQQHYSSPWTFGGGTKLEIK
B16: 847.28D1 (antibody, V domains shown)
VH: QVQLVETGPGLVAPSQSLSITCTVSGFSLTSYGVHWIRQSPGKGLEWLGTIWAGGSTDYNSPLMSRLSISKDNSKNQVFLKMNSLQIDDTAIYYCASPPSGYDYDVFASWGQGTLVTVSA
VL: DIRMTQSPASLSASVGETVTITCRASGNIHNYLAWYHQKQGKSPQLLVYNVKTLADGVPSRFSGSGSGTQFSLKINSLQPEDFGTYYCQHFWSIFPTFGGGTKLEIK
B17: 847.3B3 (antibody, V domains shown)
VH: B16 VH with V5K, T7S, S40P, T50G, S70T, N76S, I87S, I92M, S109Y
VL: B16 VL with R3L, H37Q, N50S, V51A, N76D, I94L
B18: 849.4F12 (antibody, V domains shown)
VH: QVQLKESGPGILQPSQTLSLTCSFSGFSLSTFGMGVGWIRQPSGKGLEWLAHIWWDDDKHYNPALKSRLTISKDTSKNQVFLRIANVDTADNATYYCARIDYGDYVGFAYWGQGTLVTVSA
VL: DILLTQSPSSMSVSLGDTVSITCHASQGINSNIGWLQQKPGKSFKGLIYHGTNLEDGVPSRFSGSGSGADYSLTISSLESEDFADYYCVQYDQFPWTFGGGTKLEIK
B19: 846T.4C9 (antibody, V domains shown)
VH: EVQLQQSGPELVKPGASVKMSCKASGYSFTNYIMHWVKQKPGQGLEWIGYINPYNDGTKYNEKFKGKATLTSDKSSSTAYMELSSLTSEDSAVYYCARLLFYYAMDYWGQGTSVTVSS
VL: B18 VL with L4M, S7T, N30S, G41R, H50Y
B20: 9H2.2H10 (antibody, human IgG4 S228P, kappa, V domains shown)
VH: QVQLQQPGAELVGPGSSVKLSCKASGYTFTNYWIHWVKQRPLQGLEWIGNIDPSDSETHYNQKFKDKATLTVDKSSSTAYMQLSSLTSEDSAVYYCARHGYYDYWGQGTTLTVSS
VL: DIVMTQSHKFMSTSVGDRVSITCKASQDVSTAVAWYQQKPGQSPKLLIYWASTRHTGVPDRFTGSGSGTDYTLTISSVQAEDLALYYCQQHYTTPLTFGAGTKLELKR
B21: 846.2B11 (antibody, human IgG4 S228P, kappa, V domains shown)
VH: QVQLQQSGPELVRPGALVKISCKASGYTFTSYDINWVKQRPGQGLEWIGWIYPGDGSTKYNEKFKGKATLTADKSSSTAYMQLSSLTSENSAVYFCAREAASNAMDYWGQGTSVTVSS
VL: DIVLTQSPASLGVSLGQRATISCRASKSVSTSGYSYMHWYQQKPGQPPKLLIYLASILESGVPARFSGSGSGTDFTLNIHPVEEEDAAIYYCQHSRELPLTFGAGTKLELKR
B22: 847.2B8 (antibody, V domains shown)
VH: QVQLKQSGPGLVQPSQSLSITCTVSGFSLINYGVHWVRQSPGKGLEWLGVIWSGGSTDYNAAFISRLSISKDNSKSQVFFKMNSLQADDTAIYYCARIYYYGRGYAMDYWGQGTSVTVSS
VL: QILLSQSPAILSASPGEKVTMTCRASSSVTYMYWYQQKPGSSPQPWIYATSNLASGVPARFSGSGSGTSYSLTISRVEAEDAATYYCQQWSSNPLTFGAGTKLELK

molecular target: T1, Recombinant human Gal3 (rhGal3) (TrueBinding, #QC200361) (human, UniProt P17931 2-250); experiment: cell-based or functional assay
Wherever % inhibition of CD62L shedding is given: test concentration or dose not given here.
Wherever % inhibition of IL-6 secretion is given: test concentration or dose not given here.
Wherever % inhibition of TNFα secretion is given: test concentration or dose not given here.

Compared with B1, B2 is higher in “% inhibition of CD62L shedding” value: 63.4% for the first, 76.3% for the second.

Going from B3 to B4, the “% inhibition of CD62L shedding” value rises from 93.6% to 99%.

Going from B5 to B6, the “% inhibition of CD62L shedding” value falls from 100% to 84.2%.

Compared with B7, B8 is lower in “% inhibition of CD62L shedding” value: 94.3% for the first, 39.3% for the second.

Going from B9 to B10, the “% inhibition of CD62L shedding” value rises from 83.2% to 150%.

Going from B11 to B12, the “% inhibition of CD62L shedding” value falls from 150% to 6.2%.

Going from B13 to B14, the “% inhibition of CD62L shedding” value rises from 15.4% to 87.9%.

Compared with B15, B16 is higher in “% inhibition of CD62L shedding” value: 7.5% for the first, 110% for the second.

First: B17
Second: B18
The “% inhibition of CD62L shedding” value of the first is higher: 43.4% for the first, 17.9% for the second.

First: B19
Second: B20
The “% inhibition of CD62L shedding” value of the first is lower: 11.2% for the first, 67.7% for the second.

First: B21
Second: B22
The “% inhibition of CD62L shedding” value of the first is higher: 8.2% for the first, 7% for the second.

molecular target: T2, human Gal3 protein (recombinant human Galectin-3) (human, UniProt P17931 2-250); experiment: SPR (Carterra LSA), antibody immobilised on HC200M chip, hGal3 injected
T2 construct: also called hGal3; hGAL3
T2 sequence (P17931 2-250 limits assumed): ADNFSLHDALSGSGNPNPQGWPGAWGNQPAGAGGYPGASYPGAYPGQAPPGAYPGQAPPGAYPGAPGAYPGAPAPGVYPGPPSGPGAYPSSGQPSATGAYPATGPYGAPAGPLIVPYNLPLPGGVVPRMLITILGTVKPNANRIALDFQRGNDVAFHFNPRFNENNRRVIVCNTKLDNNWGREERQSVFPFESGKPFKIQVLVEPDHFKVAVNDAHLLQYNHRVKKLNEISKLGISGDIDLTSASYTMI

B12: no binding.
B15: no binding.
B18: no binding.
B19: no binding.
B21: no binding.
B22: no binding.

molecular target: T1, Recombinant human Gal3 (rhGal3) …; experiment: cell-based or functional assay; remark: another data set of the same source

Going from B1 to B2, the “% inhibition of IL-6 secretion” value rises from -155% to -16%.

Compared with B3, B4 is higher in “% inhibition of IL-6 secretion” value: -49.1% for the first, -9% for the second.

First: B5
Second: B6
The “% inhibition of IL-6 secretion” value of the first is higher: 51.8% for the first, -204% for the second.

Compared with B7, B8 is higher in “% inhibition of IL-6 secretion” value: 55.1% for the first, 94.7% for the second.

First: B9
Second: B10
The “% inhibition of IL-6 secretion” value of the first is higher: 22.7% for the first, -0.7% for the second.

B11 and B12 cannot be ordered by “% inhibition of IL-6 secretion” value: greater than -1000% for the first, -9.8% for the second.

Compared with B13, B14 is lower in “% inhibition of IL-6 secretion” value: -71.9% for the first, -84.7% for the second.

First: B16
Second: B17
The “% inhibition of IL-6 secretion” value of the first is higher: 78.6% for the first, 72.3% for the second.

Going from B18 to B19, the “% inhibition of IL-6 secretion” value falls from 1.2% to -38.3%.

Compared with B20, B21 is higher in “% inhibition of IL-6 secretion” value: -99.1% for the first, -0.5% for the second.

Compared with B1, B2 is higher in “% inhibition of TNFα secretion” value: -185% for the first, 51.7% for the second.

First: B3
Second: B4
The “% inhibition of TNFα secretion” value of the first is higher: 62.8% for the first, 43.9% for the second.

First: B5
Second: B6
The “% inhibition of TNFα secretion” value of the first is higher: 95.3% for the first, -11.4% for the second.

Going from B7 to B8, the “% inhibition of TNFα secretion” value rises from 83.2% to 100%.

Compared with B9, B10 is lower in “% inhibition of TNFα secretion” value: -3.1% for the first, -5.4% for the second.

First: B11
Second: B12
The “% inhibition of TNFα secretion” value of the first is lower: -246% for the first, -162% for the second.

Going from B13 to B14, the “% inhibition of TNFα secretion” value rises from -153% to 70.1%.

Compared with B16, B17 is higher in “% inhibition of TNFα secretion” value: 80.5% for the first, 94.3% for the second.

Compared with B18, B19 is lower in “% inhibition of TNFα secretion” value: -81.5% for the first, -299% for the second.

Going from B20 to B21, the “% inhibition of TNFα secretion” value falls from -39.2% to -98%.
